# T1: native CLPTM1 in membrane-permeabilised O-876 cells (Homo sapiens (Human), UniProt O96005 2-669)
# T1 construct: The protein was stained inside permeabilised cells, not only at the surface; also called native target; 0-876 cells expressing native CLPTM1
# T1 sequence: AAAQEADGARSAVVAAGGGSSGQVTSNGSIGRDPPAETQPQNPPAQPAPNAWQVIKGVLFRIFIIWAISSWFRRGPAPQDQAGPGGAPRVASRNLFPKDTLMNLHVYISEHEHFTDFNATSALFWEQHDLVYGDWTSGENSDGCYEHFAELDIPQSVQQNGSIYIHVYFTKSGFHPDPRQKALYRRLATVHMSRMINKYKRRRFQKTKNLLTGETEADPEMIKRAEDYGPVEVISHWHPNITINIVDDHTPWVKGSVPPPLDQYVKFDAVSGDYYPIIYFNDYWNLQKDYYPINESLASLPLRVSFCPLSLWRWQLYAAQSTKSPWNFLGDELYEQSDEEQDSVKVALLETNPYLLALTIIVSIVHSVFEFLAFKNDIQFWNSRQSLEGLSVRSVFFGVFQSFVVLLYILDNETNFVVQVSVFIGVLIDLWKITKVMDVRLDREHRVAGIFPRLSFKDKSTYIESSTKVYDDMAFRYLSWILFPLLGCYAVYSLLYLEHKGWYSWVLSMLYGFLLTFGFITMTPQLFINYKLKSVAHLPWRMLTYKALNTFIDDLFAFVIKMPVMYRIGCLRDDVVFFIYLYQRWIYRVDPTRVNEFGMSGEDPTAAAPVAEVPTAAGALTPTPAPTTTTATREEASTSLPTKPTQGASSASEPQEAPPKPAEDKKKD
# B1: anti-CLPTM1 mouse monoclonal antibody 7G12 (antibody, IgG1, V domains shown)
# VH: QVQLQQSGTELVRPGTSVKVSCKASGYAFTNYLIEWVKQRPGQGLEWIGVINPGSGGTRYNEKFKGKATLTADKSSTTAHMQLSSLTSDDSAVYCARWGGNYSGYAMDYWGQGTSVTVSS
# VL: QIVLTQSPVIMSASPGEKVTITCSASSSVSYMHWFQQKPGTSPKLWIYSTSNLASGVPARFSGSGSGTSYSLTISRMEAEDAATYYCQQRSSYPPTFGAGTKL
# notes: Mouse monoclonal, IgG1 heavy chain, kappa light chain; The printed VL ends in 'TKL.' and may be incomplete; also called CLPTM1 clone 7G12 (IgG1)
# B2: anti-CLPTM1 antibody 59D04 (format in the assay not stated) (antibody, V domains shown)
# VH: EVQLVESGGGVVQPGRSLRLSCAASGFTFSTYAMHWVRQAPGKGLEWVAVISYDGTNKYYADSVKGRFTIFRDNSKNTLYLQMNSLRAEDTAVYYCGSGSYWGQGTLVTVSS
# VL: QPVLTQPASVSGSPGQSITISCTGTSSDVGGYNYVSWYQQHPGKAPKLMIYEVTNRPSGVSDRFSGSKSGNTASLTISGLQAEDEADYYCSSYKSSNTVVFGGGTKVTVL
# notes: Fully human antibody derived by phage display
# How the values were obtained:
# [1] = target: native CLPTM1 in membrane-permeabilised O-876 cells (Homo sapiens (Human)) (UniProt O96005); experiment: flow cytometry on permeabilised O-876 cells; half-maximal binding
# [2] = target: native CLPTM1 in membrane-permeabilised O-876 cells (Homo sapiens (Human)) (UniProt O96005); experiment: flow cytometry on permeabilised O-876 cells, 10x dilution series; half-maximal binding
# [3] = target: T1, native CLPTM1 in membrane-permeabilised …; experiment: flow cytometry on permeabilised O-876 cells, antibody dilution series, PE-labelled secondary antibody
# Protocol: (§1) Affinity of antibodies was determined by finding the half-maximal binding on the native target in a flow cytometry assay. Since the native target is found inside most cells and rarely on the cell surface, the assay was performed using plasma membrane-permeabilised cells, an intra-cellular staining protocol. Using the native target is more applicable when evaluating and comparing various antibodies as it is the true antigen to be bound in a therapeutic setting in vivo. 0-876 cells were permeabilised with BD-fix and permeabilisation buffer (554722 BD-Biosciences). Antibody at various concentrations was incubated with cells for 30 minutes at +4° C., then washed twice with wash buffer (BD-Biosciences 554723). Secondary antibodies a-mouse IgG-PE (Molecular Probes) was used for mouse monoclonal antibodies according to manufacturer's instructions and a-rabbit-IgG-PE (Molecular Probes) for rabbit monoclonal antibody (Abcam ERP8800). Three washes followed and fluorescence intensity in cells was quantified by FACS CantoII in PBS with cells in 2% FCS buffer.
# (§2) The assay was performed on O-876 cancer cell line.
# [4] = target: T1, native CLPTM1 in membrane-permeabilised …; experiment: flow cytometry on permeabilised O-876 cells, 10x dilution series; half-maximal binding
# Protocol: CLPTM1 binding in permeabilised 0-876 cells expressing native CLPTM1 was measured in a 10× dilution series. […] The AbCam antibody also retained greater than 50% of its maximum binding at 0.1 μg/ml. The 59D04 antibody retained greater than 50% of its maximum binding at 1 μg/ml, whilst the Santa Cruz antibody had less than 50% of its maximum binding at this level.
# as §1, with “Secondary antibodies a-mouse IgG-PE (Molecular Probes) was used for mouse monoclonal antibodies according to manufacturer's instructions and a-rabbit-IgG-PE (Molecular Probes) for rabbit monoclonal antibody (Abcam ERP8800).” left out
# [5] = target: T1, native CLPTM1 in membrane-permeabilised …; experiment: flow cytometry on permeabilised O-876 cells; half-maximal binding
# Protocol: as §1, §2
molecule,measurement,setting,value
"rabbit monoclonal anti-CLPTM1 antibody EPR8800 (RabMab, Abcam)",EC50,[1],< 1 µg/mL
same,EC50,[2],< 0.1 µg/mL
B1,Kd,[3],< 1 nM
same,EC50,[4],< 0.1 µg/mL
same,EC50,[5],< 1 µg/mL
B2,EC50,[4],< 1 µg/mL
